Experimental data as given in the nanobody polyreactivity screen of Harvey et al. (2022).

Assay: yeast display, Sf9 membrane polyspecificity reagent, FACS + sequencing; frameworks hold sequencing errors
Outline: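 Nanobodies from a synthetic yeast display library (Saccharomyces cerevisiae BJ5465), induced 36–48 hours with galactose, were stained 1 hour at 4 °C with 10% biotinylated, detergent-solubilized Sf9 membrane reagent, enriched on streptavidin microbeads, then FACS-sorted. Anti-HA (expression) and streptavidin (reagent binding) fluorescence set low and high (top ~1%) gates. Polyreactivity labels come from the gate of origin. Genes were colony-PCR amplified, MiSeq 2 × 250 sequenced and filtered by CDR length.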

In the case of “QVQLVESGGGLVQAGGSLRLSCAASGSIFWYYTMGWYRQAPGKERELVATITRSGSRTYYADSVKGRFTISRDNAKNTVYLQMNSLNPEDTAVYYCAKDFGRWTYDYWGQATQVTVSS”, the “polyreactivity (PSR sort gate)” value is reported as “low polyreactivity”.
In the case of “QVQLVESGGGLVQAGGSLRLSCAASGRTFSPYALGWSRKAPGKERELVAAITSRGSNTFYADSVKGRFTISRDNAKNTVYLQMNSLKPEDTAVYYCNKYTIVSRYDYWGQGTQVTVSS”, the “polyreactivity (PSR sort gate)” value is reported as “high polyreactivity”.
In the case of “QVQLVESGGGLVQAGGSLRLICAASGRIFGVYVMGLYRPAPGKERELVAAISWSGSHTYYADSVKGRFTISRDNAKNTVYLQMNSLKPEDTAVYYCNADSYPEYTGPGLDWYDYWGQGTQVTVSS”, the “polyreactivity (PSR sort gate)” value is reported as “low polyreactivity”.
With “QVQLVESGGGLVQAGGSLRLSCAASGYIFSGYAMGWYRQAPGKERELVAAISSSGGRTYYADSVKGRFTISRDNAKNTVYLQMNSLKPEDTAVYYCAARIRTVAHVDYDYWGQGTQVTVSS” the “polyreactivity (PSR sort gate)” value was “high polyreactivity”.
With “QVQLVESGGGLVQAGGSLRLSCAASGRIFGTNAMGWYRQAPGKERELVAAISRSGGSTYYADSVKGRFTISRDNSKNTVYLQMNSLKPEDTAVYYCATDGRHTYYYWGQGTQVTVSS” the “polyreactivity (PSR sort gate)” value was “high polyreactivity”.
For “QVQLVESGGCLVQAGGSLRLSCAASGRIFSAYAMGWYRQAPGKESELVAAISRSGGLTYYADSVKGRFTISRDNAKNTVYLQMTSLKPEDTAVYYCAARYGSYDSRRWYYYWGQGTQVTVSS”, the “polyreactivity (PSR sort gate)” value was “high polyreactivity”.
With “QLQLVESGGGLVKAGGSLRLSCAASGSTFGGNAMGWYRQAPGKERELVASISSSGGRTYYADSVKGRFTISRDNAKNTVYLQMNSLTPEDTAVYYCARRYYYQYRYDYWGQGTQVTVSS” the “polyreactivity (PSR sort gate)” value was “high polyreactivity”.
For “QVQLVESGGGLVQAGGSLRLSCAASGITFRWYAMGWYRQAPGKEREFVAAIDASGSTYYADSVKGRFTISRDNAKNTVYLQMNSLKPEDTAVYYCAADWDEYFGGDYWGQGTQVTVSS”, the “polyreactivity (PSR sort gate)” value was “low polyreactivity”.
In the case of “QVQLVESGGGLVQAGGSLRLSCAASGNTFYGYAMGWYRQAPGKERELVAAITKTGGSTYYADSVKGRFTISRDNAKNTVYLQMNSLKPEDTAVYYCNAARETRPRDYYWGQGTQVTVSS”, the “polyreactivity (PSR sort gate)” value is reported as “low polyreactivity”.
With “QVQLVESGGGLVQAGGSLRLSCAASGFTFTRYAMGWYRQAPGKERELVAAISRRGGSTYYADSVKGRFTISRDNAKNTVYLQMNSLKPEDTAVYYCAKDAGSRTVREFGYWGQGTQVTVSS” the “polyreactivity (PSR sort gate)” value was “high polyreactivity”.
With “QVQLVESGGGLVQAGGSLRLSCAASGFTFYRYAMGWYRQAPGKERELVAAITSRGTSTYYADSVKGRFTISRDNAKNTVYLQMNSLKPEDTAVYYCAVKGYRYGTRYDYWGQGTQVTVSS” the “polyreactivity (PSR sort gate)” value was “high polyreactivity”.
With “QVQLVESGGGLVQAGGSLRLSCAASGSTFYWNALGWYRQAPGKERELVADIDGRGGSTYYADSVKGRFTISRDNAKNTVYLQMNSLKPEDTAVYYCAARAPFLSVPSELDYWGQGTQVTVSS” the “polyreactivity (PSR sort gate)” value was “low polyreactivity”.
In the case of “QVQLVESGGGLVQAGGSLRLSCAASGITFADNAMGWYRPAPGKERELVAAITSGGSTYYADSVKGRFTISRDNAKNTVYLQMNSLKPEDTAVYYCNVRVRRLFYWARLVAYDYWGQGTQVTVSS”, the “polyreactivity (PSR sort gate)” value is reported as “high polyreactivity”.
In the case of “QVQLVESGGGLVQAGGSLRLSCAASGITFRRYAMGWYRPAPGKERELVAVISVSGGRTHYADSVKGRFTISRDNAKNTVYLQMNSLKPEDTAVYYCAADFLRYPLGYWGQGTQVTVSS”, the “polyreactivity (PSR sort gate)” value is reported as “high polyreactivity”.
With “QVQLVESGGGLVQAGGSLRLSCAASGLIFLGNAMGWYRQAPGKERELVAAISRSGGTTYYADSVKGRFTISRDNAKNTVYLQMNSLKPEDTAVYYCNAYNPYYRATVSSRGYGYWGQGTQVTVSS” the “polyreactivity (PSR sort gate)” value was “high polyreactivity”.
With “QVQLVESGGGLVQAGGSLRLSCAASGITFYGNAMGWYRQAPGKERELVAAISSSGGTTYYADSVKGRFTISRDNAKNTVYLQMNSLKPEDTAVYYCNALHPVVYYGTYFNLRRYDYWGQGTQVTVSS” the “polyreactivity (PSR sort gate)” value was “low polyreactivity”.
For “QVQLVESGGGLVQAGGSLRLSCAASGFTFKHYAMGWYRQATGKERELVATITRGGSTNYADSVKGRFTISRDNAKNTVYLQMNSLKPEDSAVYYCAAADYVRYPFTRGYIYQGYDYWGQGTQVTVSS”, the “polyreactivity (PSR sort gate)” value was “low polyreactivity”.
For “QVQLVESGGGLVQAGGSLRLSCAASGGIFDINAMGWYRQAPGKERELVAAITQSGGSTYYADSVKGRFTISRDNAKKTVYLQMNSLKPEDTAVYYCAKAVWYQGFDYWGQGTQVTVSS”, the “polyreactivity (PSR sort gate)” value was “high polyreactivity”.
With “QVQLVESGGGLVQAGGSLRLSCAASGSIFDVYTMGWYRQAPGKERELVAAINTGGGSTYYADSVKGRFTISRDNAKNTVYLQMNSLKPEETAVYYCAASVYHYGPLYYWGQGTQVTVSS” the “polyreactivity (PSR sort gate)” value was “low polyreactivity”.
In the case of “QVQLVESAGGLVQAGGSLRLSCDASGRILKYYDIGWYRQAPGKEWELVAAISVSGTSTYYADSVKGRFTISRDNAKNTVYLQMNSLKPEDTAVYYCATATGRYSFDYWGQGTQVTVSS”, the “polyreactivity (PSR sort gate)” value is reported as “low polyreactivity”.
In the case of “QVQLVESGGGLVQAGGSLRLSCAASGFTFAYYTMGWYRQAPGKERELVVVINRSGSTNYADSVKGRFTISRDNAKNTVYLQMNSLKPEDTAVYYCATGVALRYGYWGQGTQVTVSS”, the “polyreactivity (PSR sort gate)” value is reported as “low polyreactivity”.
With “QVQLVESGGGLVQAGGSLRLSCAASGSTLWVYAMGWYRQAPGKERELVAAITQSTGDTHYADSVKGRFTISRDNAKNTVYLQMNSLKPEDTAVYYCAADSYLSVYDPYGYWGQGTQVTVSS” the “polyreactivity (PSR sort gate)” value was “low polyreactivity”.
With “QVQLVESGGGLVQAGGRLRLSCAASGSTFRLYAMGRYRQAPGKERELVAAIRGSGGSTYYADSVKGRFTISRDNAKNTVYLQMNSMKPEDNAVYYCAARVVVARRSYVGYGYWGQGTQVTVSS” the “polyreactivity (PSR sort gate)” value was “high polyreactivity”.
With “QVQLVESGGGLVQAGGSLRLSCAASGIIFYWYAMGRYRQAPGKERELVATINSTGGSTNYADSVKVRFTISRDNAKNTVYLQMNSLKPEDTAVYYCAKDWNDDQHSWDTPFDYWGQGTQVTVSS” the “polyreactivity (PSR sort gate)” value was “low polyreactivity”.
With “QVQLVESGGGLVQAGGSLRLSSAASGSTFRYNAMGWYRQAPGKERELVAAITSTGDSTYYADSVKGRFTISRDNAKNTVYLQMNSLKPEDTAVYYCAARSYASPGWRYEYWGQGTQVTVSS” the “polyreactivity (PSR sort gate)” value was “low polyreactivity”.
For “QVQLVESGGGLVQAGGSLRLICAASGFIFASYAMGWYRQSPGKEREFVAAITRRGGTTYYADSVNGRFTISRDNAKNTVYLQMNSLKPEDTAVYYCATAHSRPGYVFDYWGQGTQVTVSS”, the “polyreactivity (PSR sort gate)” value was “high polyreactivity”.
In the case of “HVQLVESGAGLVQAGGSLRLSCAASGSIFGFYAMGWYRQAPGKERELVAAISSSGDSTYADSVKGRFTISRDNAKNTVYLQMNSLKPEDTAVYYCAADEDSRNWGQGTQVTVSS”, the “polyreactivity (PSR sort gate)” value is reported as “high polyreactivity”.
For “QVQHVESGGGLVQAGGSLRLSCAASGRTFNFNTMGWYRQAPGKERELVASITSGGSTNYADSVKGRFTISRDKAKNTVYLQMNSLKPVDTAVYYCATRTTTFWFDYWVQGTQVTVSS”, the “polyreactivity (PSR sort gate)” value was “low polyreactivity”.
In the case of “QVHLVESGGGLVQAGGTLRLRCAASGSTFVYNDMGWYRQAPGKERELVAAISTSGGSTYYADSVKGRFTISRDNAKNTVYLQMNSLKPEDTAVYFCAVDSYYFGYWAIQWEGDYWGQGTQVTVSS”, the “polyreactivity (PSR sort gate)” value is reported as “low polyreactivity”.
For “QVQLVESGGGLVQAGGSLRLSCAASGRISWVYPMGWYRKAPGKERELVAAITFSGGSTYYADSVKGRFTISRDNAKNSVYLQMNSLKPEDTAVYYCAADVLAIYSHRYYRYDSWGQGTQVTVSS”, the “polyreactivity (PSR sort gate)” value was “high polyreactivity”.
For “QVQLVESGGGLVQAGGSLRLSCDASGSIFGVNAMGWYRQAPGKERELVAAINNGGSTKYADSVKGRFTISRDNAKNTVYLQMNSLKPEDTAVYYCAARSWTHYFRFDYWGQGTQVTVSS”, the “polyreactivity (PSR sort gate)” value was “high polyreactivity”.
In the case of “QVQLVESGGGLVQAGGSLRLSCAASGRTFGQYVMGWYRKAPGKERELVAAIRSGGSTYYADSVKGRFTISRDNAKNTVYLQMNSLKPEDTAVYYCAKETYYVTDNFGQVGGEMDYWGQGTQVTVSS”, the “polyreactivity (PSR sort gate)” value is reported as “low polyreactivity”.
For “QVQLVESGGGLVQAGGSLRLSCAASGSIFKYYVMGWYRQAPGKERELVAAITRGGRTYYADSVKGRFTISRDNAKNTVYLQMNSLKPEDTAVYYCARSLQTTSGIIPYDYWGQGTQVTVSS”, the “polyreactivity (PSR sort gate)” value was “high polyreactivity”.
In the case of “QVQLVESGGGLVQAGGSLRLSCAASGSIFDGNALGWYRQAPGKERELVAAISYRGGSTYYADSVKGRFTISRDNAKNTVYLQMNSLKPEDTAVYYCAAGSISTPGRGVDKPDPYDYWGQGTQVTVSS”, the “polyreactivity (PSR sort gate)” value is reported as “low polyreactivity”.
In the case of “QVQLVESGGGLVQAGGSLRLSCAASGNIFTGYMGWYRQAPGKERELVAAISRSGGRTHYADSVKGRFTISRDNAKNTVYLQMNSLKPEDTAVYYCNADVRRYTAFTKDAYAFNYWGQGTQVTVSS”, the “polyreactivity (PSR sort gate)” value is reported as “high polyreactivity”.
With “QVQLVESGGGLDQAGGSLRLICADSGSIFYIYAMGWYIHAPGKETELVASISGSGSTYYADSVKGRFRISRDNAKNTVYLQMNSLKPEDTAVYYCAVELWRVWGAYSYTYDYWGQGTQVTVSS” the “polyreactivity (PSR sort gate)” value was “high polyreactivity”.
For “QVQLVESGGALVQAGGSLRLSCAASGYTFFYYAMGWYRQARGKERVLVAIDLNGGSTYYADSVKGRFTISRDNEKNTVYLQINSLKPEDTAVYYCNAKTSIGTWVGDDYWGQGTQVTVSS”, the “polyreactivity (PSR sort gate)” value was “low polyreactivity”.
In the case of “QVQLEESGGGLVQAGGSLRLSCAASGSIFYPYAMGWYRQAPGKERELVAAISGRGGNTYYADSVKGRFTISRDIAKNTVYLQMNSLKPEDSAVYDCAADRYYWSLYGYDYWGQGTQVTVSA”, the “polyreactivity (PSR sort gate)” value is reported as “high polyreactivity”.
For “QVQLVESGGGLVQAGGSLRLSCAASGSIFYYYAIGWYRKAPGKEREFVATIRRSGASTYYADSVKGRFTISRDNAKNTVYLQMNSLKPEDTAVYYCNAASARRPIYEAARWSKYDYWGQGTQVTVSS”, the “polyreactivity (PSR sort gate)” value was “low polyreactivity”.
With “QVQLVESGGGLVQAGGSLRLSCAASGSTFNDYAMGWYRQAPGKERELVASIRYSGGGTYYADSVKGRFTISRDNAKNTVYLQMNSLKPEDTAVYYCAKDTHLLNEHSGTSREYDYWGQGTQVTVSS” the “polyreactivity (PSR sort gate)” value was “low polyreactivity”.
In the case of “QVQLVESGGGLVQGGGSLRLSCAASGSIFTRNAMGWYRQAPGKEREFVAAISSSGVSTYYADSVKGRFTISRDNAKNTVYLQMNSLKPEDTALYYCAARWGTKSGRYDYWGQGTQVTVSS”, the “polyreactivity (PSR sort gate)” value is reported as “high polyreactivity”.
With “QVQLVESGGGLVQAGGSLRLSCAASGRTFRYYDMGWYRQAPGKEREFVAAITWRGGSTYYADSVKGRFTISRDNAKNTVYLQMNSLKPEDTAVYYCATDSLRLYGGKRDLYYWGQGTQVTVSS” the “polyreactivity (PSR sort gate)” value was “low polyreactivity”.
With “QVQLVESGGGLVQAGGSLRLSFAASGSIFPSYAMVWYRQAPGKERELVARISSGDDSTYYADSVKGRFTISRDNAKNTVYLQMNSLKPEDNAVYYCAADYPDVVYLEYDYWGQGTQVTVSS” the “polyreactivity (PSR sort gate)” value was “low polyreactivity”.
